Experiments:
[1] = molecular target: Prp43-GP (T61-A764 fused to G-path domain of Pfa1) (Chaetomium thermophilum); test: EMSA; milder dissociation than wild type; 120 nM protein, 30 nM DNA; details: tags: C-terminal G-path domain fusion; GST tag removed; label: FAM
Method: (§1) In this example, the binding of the N-terminus (M1-N60)-truncated wild-type Prp43 helicases or the modified protein constructs Prp43-GP and Prp43-GP-2 (F181C/N623C/C508S) to DNA, including the enhancement of nucleic acid binding following disulfide bond formation between mutant sites F181C and N623C in the mutants catalyzed by a TMAD catalyst, was assayed by an electrophoresis mobility shift assay.
(§2) The experimental procedures were as follows: 30 nM FAM fluorophore-labeled single-stranded poly-thymine substrate T44-37-FAM was added to a buffer (10 mM HEPES, 50 mM KCl, pH 7.0), the wild-type Prp43 helicase and the modified helicases […] and Prp43-GP-2 at a final concentration of 120 nM were separately added, and the mixture was incubated at 30° C. for 1.5 h; a TMAD cross-linking agent at a final concentration 1000 times that of the helicase was used for catalyzing the crosslinking of cysteines at mutation sites, and the mixture was incubated at 30° C. for 1.5 h.

[2] = molecular target: Prp43-GP-2 (F181C/N623C/C508S) (Chaetomium thermophilum); test: EMSA; no significant dissociation with or without TMAD; 120 nM protein, 30 nM DNA; details: tags: C-terminal G-path domain fusion; GST tag removed; label: FAM
Method: as §1, §2

Binder: TTTTTTTTTTTTTTTTTTTTTTTTTTTTTTTTTTTTTTTTTTTT (ssDNA, [FAM at T37 (from name)]) [T44-37-FAM poly-thymine substrate]
- binding result [1]: binds
- binding result [2]: binds

— patent US20240368568, “MODIFIED PRP43 HELICASE AND USE THEREOF” (QITAN TECHNOLOGY LTD., CHENGDU, published 2024)
